# US20070207967A1, “Peptide Inhibitors of Matrix Metalloproteinase Activity” (CTT CANCER TARGETING TECHNOLOGIES OY, priority 2004, published 2007)
# Ends that are not written are not given here.
# B1: CRV phage (… displayed on phage) (peptide)
# peptide: CRVYGPYLLC
# modifications: cysteine pairing not given here; also: displayed on phage as coat protein fusion
# Target: 125I-labelled MMP-9 C domain (UniProt P14780)
# Test: phage-binding assay, 125I-labelled against unlabelled MMP-9 C domain
# 125I-labelled MMP-9 C domain, sequence (P14780 513-707 limits assumed, form in doubt): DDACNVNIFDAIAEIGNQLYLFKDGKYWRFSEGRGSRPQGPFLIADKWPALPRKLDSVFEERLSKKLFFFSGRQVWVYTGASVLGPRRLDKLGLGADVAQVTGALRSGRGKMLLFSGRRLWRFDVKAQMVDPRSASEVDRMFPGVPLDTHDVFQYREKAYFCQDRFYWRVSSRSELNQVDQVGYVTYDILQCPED
binder,measurement,value
B1,% of CRV peptide-binding activity retained after 125I-labelling,40%
